Reference: publication PMC7728782, “Heat induces end to end repetitive association in P. furiosusL-asparaginase which enables its thermophilic property” (Scientific Reports, 2020)

How the values were obtained:
[1] = target: conjoined PfA (cPfA): N-PfA and C-PfA halves of P. furiosus L-asparaginase without the 19-residue linker (Pyrococcus furiosus) (UniProt Q8TZE8); assay: SAXS; protein at 6 mg/mL in a thermostated quartz capillary, 25 °C; association state from I0 of the Guinier analysis against lysozyme
[2] = target: conjoined PfA (cPfA): N-PfA and C-PfA halves of P. furiosus L-asparaginase without the 19-residue linker (Pyrococcus furiosus) (UniProt Q8TZE8); assay: SAXS; protein at 6 mg/mL in a thermostated quartz capillary, 70 °C; association state from I0 of the Guinier analysis against lysozyme
[3] = target: conjoined PfA (cPfA): N-PfA and C-PfA halves of P. furiosus L-asparaginase without the 19-residue linker (Pyrococcus furiosus) (UniProt Q8TZE8); assay: SAXS; protein at 6 mg/mL in a thermostated quartz capillary, 80 °C; association state from I0 of the Guinier analysis against lysozyme
[4] = target: conjoined PfA (cPfA): N-PfA and C-PfA halves of P. furiosus L-asparaginase without the 19-residue linker (Pyrococcus furiosus) (UniProt Q8TZE8); assay: SAXS; protein at 6 mg/mL in a thermostated quartz capillary, 60 °C; association state from I0 of the Guinier analysis against lysozyme
[5] = target: conjoined PfA (cPfA): N-PfA and C-PfA halves of P. furiosus L-asparaginase without the 19-residue linker (Pyrococcus furiosus) (UniProt Q8TZE8); assay: SAXS; protein at 6 mg/mL in a thermostated quartz capillary, 50 °C; association state from I0 of the Guinier analysis against lysozyme
[6] = target: conjoined PfA (cPfA): N-PfA and C-PfA halves of P. furiosus L-asparaginase without the 19-residue linker (Pyrococcus furiosus) (UniProt Q8TZE8); assay: SAXS; protein at 6 mg/mL in a thermostated quartz capillary, 40 °C; association state from I0 of the Guinier analysis against lysozyme
[7] = target: conjoined PfA (cPfA): N-PfA and C-PfA halves of P. furiosus L-asparaginase without the 19-residue linker (Pyrococcus furiosus) (UniProt Q8TZE8); assay: SAXS; protein at 6 mg/mL in a thermostated quartz capillary, 30 °C; association state from I0 of the Guinier analysis against lysozyme
[8] = target: defunct cPfA (dcPfA): cPfA truncated beyond D178 of the N-terminal domain (Pyrococcus furiosus) (UniProt Q8TZE8)
[9] = target: the molecule itself; assay: SAXS; protein at 6 mg/mL in a thermostated quartz capillary, 50 °C; association state from I0 of the Guinier analysis against lysozyme
[10] = target: the molecule itself; assay: SAXS; protein at 6 mg/mL in a thermostated quartz capillary, 80 °C; association state from I0 of the Guinier analysis against lysozyme
[11] = target: the molecule itself; assay: SAXS; protein at 6 mg/mL in a thermostated quartz capillary, 30 °C; association state from I0 of the Guinier analysis against lysozyme
[12] = target: the molecule itself; assay: SAXS; protein at 6 mg/mL in a thermostated quartz capillary, 40 °C; association state from I0 of the Guinier analysis against lysozyme
[13] = target: the molecule itself; assay: SAXS; protein at 6 mg/mL in a thermostated quartz capillary, 25 °C; association state from I0 of the Guinier analysis against lysozyme
[14] = target: the molecule itself; assay: crystal structure; cPfA crystallised at 37 °C, 2.36 Å, PDB 5CBP; contacts between symmetry mates

conjoined PfA (cPfA): N-PfA and C-PfA halves of P. furiosus L-asparaginase without the 19-residue linker (from UniProt Q8TZE8 1-182; Q8TZE8 1-182) (complex)
stoichiometry N [1]: 2 | stoichiometry N [2]: 8 | stoichiometry N [3]: 12 | stoichiometry N [4]: 4 | stoichiometry N [5]: 2 | stoichiometry N [6]: 2 | stoichiometry N [7]: 2

defunct cPfA (dcPfA): cPfA truncated beyond D178 of the N-terminal domain (from UniProt Q8TZE8 1-178; Q8TZE8 1-178) (complex)
loss in specific activity of dcPfA relative to cPfA, 45 °C [8]: 38% | loss in specific activity of dcPfA relative to cPfA, 60 °C [8]: 60% | loss in specific activity of dcPfA relative to cPfA, 70 °C [8]: 80% | loss in specific activity of dcPfA relative to cPfA, 80 °C [8]: 90%

B1: L-asparaginase from Pyrococcus furiosus, full-length wild type (PfA) (enzyme, UniProt Q8TZE8 1-326, looked up)
chain: MKILLIGMGGTIASVKGENGYEASLSVKEVLDIAGIKDCEDCDFLDLKNVDSTLIQPEDWVDLAETLYKNVKKYDGIIVTHGTDTLAYTSSMISFMLRNPPIPIVFTGSMIPATEENSDAPLNLQTAIKFATSGIRGVYVAFNGKVMLGVRTSKVRTMSRDAFESINYPIIAELRGEDLVVNFIPKFNNGEVTLDLRHDPKVLVIKLIPGLSGDIFRAAVELGYRGIVIEGYGAGGIPYRGSDLLQTIEELSKEIPIVMTTQAMYDGVDLTRYKVGRLALRAGVIPAGDMTKEATVTKLMWILGHTNNVEEIKVLMRKNLVGELRD
notes: L-asparaginase of Pyrococcus furiosus, full length, with N-terminal domain, 19-residue linker and C-terminal domain; One protomer; the SAXS rows give the size of the oligomer it forms
stoichiometry N [9]: 2 | stoichiometry N [10]: 4 | stoichiometry N [11]: 2 | stoichiometry N [12]: 2 | stoichiometry N [13]: 2

B2: N-PfA, N-terminal domain chain of conjoined PfA (domain or fragment, Pyrococcus furiosus, UniProt Q8TZE8 1-182, looked up)
chain: MKILLIGMGGTIASVKGENGYEASLSVKEVLDIAGIKDCEDCDFLDLKNVDSTLIQPEDWVDLAETLYKNVKKYDGIIVTHGTDTLAYTSSMISFMLRNPPIPIVFTGSMIPATEENSDAPLNLQTAIKFATSGIRGVYVAFNGKVMLGVRTSKVRTMSRDAFESINYPIIAELRGEDLVVN
notes: N-PfA, the N-terminal half of P. furiosus L-asparaginase; ends at residue 182
binding result [14]: binds

LVVN [L-V-V-N peptide (terminal short beta-strand of the N-terminal domain of PfA, Leu179-Asn182)]
specific activity of dcPfA pre-incubated with LVVN peptide (different molar ratios, highest effective 500 µM) against dcPfA alone, 37 °C [8]: 1.66 fold | specific activity of dcPfA pre-incubated with LVVN peptide (different molar ratios, highest effective 500 µM) against dcPfA alone, 45 °C [8]: 1.85 fold | specific activity of dcPfA pre-incubated with LVVN peptide (different molar ratios, highest effective 500 µM) against dcPfA alone, 60 °C [8]: 2.36 fold
